For one molecule, concentration and EC50 results are on record in patent US20230056230A1.

Test [1] addresses PD-1 and LAG-3 on CD4+ and CD8+ cells of patients' peripheral blood. Briefly: receptor occupancy by flow cytometry on patients' whole blood, CD4+ cells; Emax model.
Test [2] shares this target. The test is described as follows: receptor occupancy by flow cytometry on patients' whole blood, CD8+ cells; Emax model of % binding against DART-I concentration. A general note: In flow cytometry, cells or beads pass a laser one at a time.
For test [3] the target is unchanged. The test is described as follows: receptor occupancy by flow cytometry on patients' whole blood, CD8+ cells; Emax model.
The target is the same in test [4]. Briefly: receptor occupancy by flow cytometry on patients' whole blood, CD4+ cells; Emax model of % binding against DART-I concentration.

B1: DART-I (bispecific antibody, human IgG4 S228P)
chain 1: DIQMTQSPSSLSASVGDRVTITCRASQDVSSVVAWYQQKPGKAPKLLIYSASYRYTGVPSRFSGSGSGTDFTLTISSLQPEDFATYYCQQHYSTPWTFGGGTKLEIKGGGSGGGGQVQLVQSGAEVKKPGASVKVSCKASGYSFTSYWMNWVRQAPGQGLEWIGVIHPSDSETWLDQKFKDRVTITVDKSTSTAYMELSSLRSEDTAVYYCAREHYGTSPFAYWGQGTLVTVSSGGCGGGEVAACEKEVAALEKEVAALEKEVAALEKESKYGPPCPPCPAPEFLGGPSVFLFPPKPKDTLYITREPEVTCVVVDVSQEDPEVQFNWYVDGVEVHNAKTKPREEQFNSTYRVVSVLTVLHQDWLNGKEYKCKVSNKGLPSSIEKTISKAKGQPREPQVYTLPPSQEEMTKNQVSLTCLVKGFYPSDIAVEWESNGQPENNYKTTPPVLDSDGSFFLYSRLTVDKSRWQEGNVFSCSVMHEALHNHYTQKSLSLSLG
chain 2: EIVLTQSPATLSLSPGERATLSCRASESVDNYGMSFMNWFQQKPGQPPKLLIHAASNQGSGVPSRFSGSGSGTDFTLTISSLEPEDFAVYFCQQSKEVPYTFGGGTKVEIKGGGSGGGGQVQLVQSGAEVKKPGASVKVSCKASGYTFTDYNMDWVRQAPGQGLEWMGDINPDNGVTIYNQKFEGRVTMTTDTSTSTAYMELRSLRSDDTAVYYCAREADYFYFDYWGQGTTLTVSSGGCGGGKVAACKEKVAALKEKVAALKEKVAALKE
In the case of B1, the concentration at which 90% of max RO is achieved in test [1] was 0.6 µg/mL; in test [3], 0.1 µg/mL. For the same molecule, the EC50 (usually the concentration needed to bring the measured effect to its halfway point) in test [2] turned out to be 0.011 µg/mL; in test [4], 0.045 µg/mL.
